In patent publication US20230226096A1 (Orna Therapeutics, Inc., priority 2020, published 2023):

test system: HEK293 cells; assay type: cell-based, human; conditions: luminescence from secreted Gluc in supernatant 24 hours after transfection of HEK293 cells; circular RNA encoding Gluc with the named IRES (UTR truncated to 675 nt)

Molecule	Expression
Malagasivirus B (nucleic acid, Malagasivirus B) DNA: CTTTATTTTCTTATGTAACTCTTCTTTTTAAGTTTTATTTTGCCTACTTGTGAGCTTATGCGGGACCACTGTCTTAGACAACCCCACATTTGTCATGAGTAAGTACACGCAACCATTACGATTACTTTTTAACCGTCTGACCTTTTGATAACAACTGAAGTTAGGCGTGAAACATGCATTTATACCAAAGTAGCCCCGCATTTCCCCACTACGGTGGGGGGGCTACCCTACTGGCTTTGGAACTGTAGCCATTATGTGTTGCCTGGCTTTCAGGATCTCACAACACAACAGTTCTCTCACAATGGAATATGGGTGAGATTGCAGTGACATGAACAAGTATCTAGTAGTACATAGACTCAAGCCTAGTTGCCTGCGGAACAACATGTGGTAACACATGCCCCAGGGTCCAAAAGACAAGGGTTAACAGCCCCTTCTAGGTGTCTGTGTGTGAAGAATACTTTAGTAGTGTTGTTATGATCTCACCTGTTAGTACAGAATGAGTATGGCTTGGTGAAGGATGTCCTACAGGTACCCATTATATGGATCTGAGTAGGAGACCACTAGTGGTGGCTTTACCGCCAGGTGAGTGGTTTAAAAAGCGTCTAGCCAAGCCAACAGCACTAGGGATAGTGCTTTCTATATTTTATATTTTCAGTGTAT	5.05E+06
Posavirus 1 (nucleic acid) DNA: ACATTTCCTTGCGTGCGCACCCGAAAATTTATTGAACTTGGCTTGAATCATAAGTAATGCTTCTTATAGCGGACACTTTGAGAATATAATGCTTGTATGGATTAATGTATACTGTTTTAAATAACAAACCTAGACACGCAGTTGCGTTGATGGTTGTATCAATCACATATAAGTGTTGAACTCGTGTTAATCCTCGATCGCTATATGTTTGCCGCCTACTTCCAATAAAATAGATTACATGCGCGTCATGCCTTTGTGGGTTACCTATTGGCCTCTGACAAAAACAAGTCGTAAGATTTGTAGCTTCCCGGTGTAAAAAGCTGGGCGCGGTCTGGCTCTCGTAGGGTGGAAAGGTCCACCAATGGCTGGTTGAGTGTAAGCTCCGGTGTCCTGGTTGTCGCAATTCCAGGCGTCGTAATAACCTATATTGCATCTGACTCTAACTCTTGTGGCTCTACTGTATCTAGTTCTTGTTCTACTAACTCTAATAATACTACTGGCTCTAATACTGAAAAACTTACATATGTTAATATAGATAATATCCTTGATCCTGATATCCCTCACGTCACTGAAGTTCGCCGAAAACGAATTTCAGATCATATCATTGAATCTCAAGGATGTACTTGCTCTGAACCTACTATAACTCCTCATGCGTTTTCATTTTCTACTCTTGGC	1.55E+06
PTV B (nucleic acid, Teschovirus B) DNA: CTTCCTTTTAATTCGTAACTGATAAGTGATAGTCCTTGGAAGCTAGGTATTTGTTACGCTAGTTTTGGATTATCTTGTGCCCAACATTTGTTTTCGAACATATGTTGTGTTTAAACACAGAAATCTAGTTTCTTTGGTTATGAGTTTAATGGAATATCCTTTTGAAAGACTTGCCTTGGCGCGGGCTAGAGCGCAATTGTCACCAGGTATTGCACCAATGGTGGCGACAGGGTACAGAAGAGCAAGTACTCCTGACTGGGTAATGGGACTGCATTGCATATCCCTAGGCATCTATTGAGATTTCTCTGGAGCCCACCAGCATGGAGTTCCTGTATGGGAATGCAGGACTGGACTTGTGCTGCCTGACAGGGTCGCGGCTGGCCGTCTGTACTTTGTATAGTCAGTTGAAACTCATT	6.02E+06
A105-675 (nucleic acid) DNA: CCACCCACAGCAAGAATGCCATCATCTGTCCTCACCCCCATTTCTCCCCTCCTTCCCCTGCAACCATTACGCTTACTCGCATGTGCATTGAGTGGTGCACGTGTTGAACAAACAGCTACACTCACGTGGGGGCGGGTTTTCCCGCCCTTCGGCCTCTCGCGAGGCCCACCCTTCCCCTTCCTCCCATAACTACAGTGCTTTGGTAGGTAAGCATCCTGATCCCCCGCGGAAGCTGCTCGCGTGGCAACTGTGGGGACCCAGACAGGTTATCAAAGGCACCCGGTCTTTCCGCCTCCAGGAGTATCCCTGCTAGTGAATTCTAGTGGGGCTCTGCTTGGTGCCAACCTCCCCCAAATGCGCGCTGCGGGAGTGCTCTTCCCCAACTCACCCTAGTATCCTCTCATGTGTGTGCTTGGTCAGCATATCTGAGACGATGTTCCGCTGTCCCAGACCAGTCCAGCAATGGACGGGCCAGTGTGCGTAGTCGTCTTCCGGCTTGTCCGGCGCATGTTTGGTGAACCGGTGGGGTAAGGTTGGTGTGCCCAACGCCCGTACTTTGGTGACAACTCAAGACCACCCAGGAATGCCAGGGAGGTACCCCGCCTCACGGCGGGATCTGACCCTGGGCTAATTGTCTACGGTGGTTCTTCTTGCTTCCATTTCTTTCTTCTGTTC	2.18E+07
PTV A (nucleic acid, Teschovirus A) DNA: ACTAGTCCTTGGACTTTTGTTGTGTTTAAACACAGAAATTTAATTACCTGGCCATGAATTCATTGGATTAACCCTTCTGAAAGACTTGCTCTGGCGCGAGCTAAAGCGCAATTGTCACCAGGTATTGCACCAGTGGTGGCGACAGGGTACAGAAGAGCAAGTACTCCTGACCGGGCAATGGGACTGCATTGCATATCCCTAGGCACCTATTGAGATTTCTCTGGGGCCCACCGGCGTGGAGTTCCTGTATGGGAATGCAGGACTGGACTTGTGCTGCCTGACAGGGTCGCGGCTGGCCGTCTGTACTTTGTATAGTCAGTTGAAACTCACC	7.29E+05
Tottorivirus (nucleic acid, listed as Tottorivirus sp.) DNA: CCCCTTTACGTAACTGCAACTTAAAGAGTACCCTACTGCATTGGATGTGTGGTAAACTTTTACGCACACATTTGTAGTAGTGTTAGTTATGTTCTACCTAATGAGTATGCATGCACCCGTCGAAACACGCTTGTGATAAGATAGGTGAGTCCATGTGACTAATCTCATTAAGATAAATAAGCACCCTACAACGCACGGCACGCTCGTGTCTTCCGTGCGGGGCCGGGACAACAGCGGCCTAAATCTTCTAGGTGACCACCATGCTTTTGGGACTATGGCACCACTGTGGACGTGAGTACCTGGCAGTAAGTCTGTGAAAAGATGGAAGGTGTCCCAAGCTATGGGGCGTATGCATATAGCCTGCGGAACAAACAACGGCGACGTTGTCCCCAGGGCCCAAAAGGCACGTGGATAAGATCCACCTATATGTTTACCCCATAGTGTAAGTCACTGGAAGTCCTAGTAATGGATGTCTGGAGTAAGGCTCACGGGGTAGGGCGAAGGATGCCCAGAAGGTACCCGTAGGTAACCTTAAGAGACTATGGATCTGATCTGGGGACCGGATGGCGCCATCACCATGACGTGGAGGCCGGTTTAAAAAACGTCTAAGCCCGACCAACAACCTAGGGGACTAGGTTTTCCTTTTTTATTCATGTATGACGTT	2.76E+07
A110-675 (nucleic acid) DNA: ACCTTTGTGCGCCTGTTTTATACCCCCTCCCCCAACTGTAACTTAGAAGTAACACACACCGATCAACAGTCAGCGTGGCACACCAGCCACGTTTTGATCAAGCACTTCTGTTACCCCGGACTGAGTATCAATAGACTGCTCACGCGGTTGAAGGAGAAAGCGTTCGTTATCCGGCCAACTACTTCGAAAAACCTAGTAACACCGTGGAAGTTGCAGAGTGTTTCGCTCAGCACTACCCCAGTGTAGATCAGGTCGATGAGTCACCGCATTCCCCACGGGCGACCGTGGCGGTGGCTGCGTTGGCGGCCTGCCCATGGGGAAACCCATGGGACGCTCTAATACAGACATGGTGCGAAGAGTCTATTGAGCTAGTTGGTAGTCCTCCGGCCCCTGAATGCGGCTAATCCTAACTGCGGAGCACACACCCTCAAGCCAGAGGGCAGTGTGTCGTAACGGGCAACTCTGCAGCGGAACCGACTACTTTGGGTGTCCGTGTTTCATTTTATTCCTATACTGGCTGCTTATGGTGACAATTGAGAGATCGTTACCATATAGCTATTGGATTGGCCATCCGGTGACTAATAGAGCTATTATATATCCCTTTGTTGGGTTTATACCACTTAGCTTGAAAGAGGTTAAAACATTACAATTCATTGTTAAGTTGAATACAGCAAA	1.24E+08
SVV (nucleic acid) DNA: CTGGGCCCTCATGCCCAGTCCTTCCTTTCCCCTTCCGGGGGGTAAACCGGCTGTGTTTGCTAGAGGCACAGAGGAGCAACATCCAACCTGCTTTTGTGGGGAACGGTGCGGCTCCAATTCCTGCGTCGCCAAAGGTGTTAGCGCACCCAAACGGCGCATCTACCAATGCTATTGGTGTGGTCTGCGAGTTCTAGCCTACTCGTTTCTCCCCTATCCACTCACTCACGCACAAAAAGTGTGCTGTAATTACAAGATTTAGCCCTCGCACGAGATGTGCGATAACCGCAAGATTGACTCAAGCGCGGAAAGCGCTGTAACCACATGCTGTTAGTCCCTTCATGGCTGCGAGATGGCTATCCACCTCGGATCACTGAACTGGAGCTCGACCCTCCTTAGTAAGGGAACCGAGAGGCCTTCTTGCAACAAGCTCCGACACAGAGTCCACGTGATTGCTACCACCATGAGTACATGGTTCTCCCCTCTCGACCCAGGACTTCTTTTTGAATATCCACGGCTCGATCCAGAGGGTGGGGCATGATCCCCCTAGCATAGCGAGCTACAGCGGGAACTGTAGCTAGGCCTTAGCGTGCCTTGGATACTGCCTGATAGGGCGACGGCCTAGTCGTGTCGGTTCTATAGGTAGCACATACAAAT	1.06E+06
Mosavirus A2 SZAL6 (nucleic acid, listed as Mosavirus sp.) DNA: CCCCCCCCTCAAATTGCAACGATATAGCTAATGGCGAGATTGAGATGCTATATCACCTCTTCTAAGTTATAGACCTCATCTGATTGATAAGGACGTAATTTGGTCGAAACCGCTTGGAATAAGACCGATGCGCGTAGTCATGATGATGATGTAAGATCTAGGAACTTATCCAATCTGCTTATGTCTATGTAAGTAGAGGGGCAGGCCTCATTGCCCTAATTCTTTCTACCGAGTATCTGCTAGGGTTTCTAGCGGCTTGAATACTTGGATTGAGGGATACAAGATACTACTGATCGATTGTCGATTGGGAAACTTGTAGATACTTCAAAGCTACCAGTAGCGTGGACTCACAGCCAGCGGACTACCCCTCATGGTAACATGAGCCTCTGGGCCCACAAGGCACGTCGCAAGACCTGTGAGACGGCAACCCCAGCCTAGCTTTGTTGAGGAAACAAGCGATAACATGACATGAGAGACCGGAAGGATTCTTGTATTGTGAGCCGAAGGATGGCCTCTAGGTACCTCATTTTATGAGATCTGAGGAGGTGCTCTTGAGTTGGTGCTTTACACTGACAACACAGAGTTAAAAAGCGTCTAAGCTCACCCGGAAATTGGGAAATTTCCGTTATTTCCATTTTGTTTGCAAAGTCGTTC	8.27E+06
